In the RNAGym collection of RNA variant scans (doi:10.7554/elife.90254):

B1: LINE1-full (parent)
chain: UACGUAGGUGGUUUUCCCCUGAUAGUGCUAAGGGGGCCUGGAAGUUUGGACUGGGCAGAGCUCAACACAGCGUGGCAAAGUGGCUGUGGCUAGACUGCCUCUCUGGAUUCCUCGUCACUCAGCAGGGCAUCUCUGAGAGAAAUGCC

Variants of: B1
Test: self-cleavage, relative activity (ratio to wild type); higher = more cleavage; in vitro, sequencing; the parent is a self-cleaving ribozyme

Going from UACGUAGGUGGUUUUCCCCUGAUAGUGCUAAGGGGGCCUGGAAGUUUGGUCUGGGCAGAGCUCAACACAGCGCGGCAAAGUGGCUGUGGCUAGACUGCCUCUCUGGAUUCCUCGUCACUCAGCAGGGCAUCUCUGAGAGAAAUGCC [A50U U73C] to UACGUACGUGGUUUUCCCCUGAUAGUGCUAAGGGGGCCUGGAAGUUUGGACUGGGCAGAGCUCAACACAGCGUGGCAAAGUGGCCGUGGCUAGACUGCCUCUCUGGAUUCCUCGUCACUCAGCAGGGCAUCUCUGAGAGAAAUGCC [G7C U85C], the self-cleavage falls from 2.09 to 1.26.

Compared with UACGUAGGUGGUUUUCCCCUGAUAGUGCUAAGGGGGCCCGGAAGUUUGGACUGGGCAGAGCUCAACACAGCGUGGCAAAGUGGCUGUGGCUAGACUGCCUCUCAGGAUUCCUCGUCACUCAGCAGGGCAUCUCUGAGAGAAAUGCC [U39C U104A], UACGUGGGUGGUUUUCCCCUGAUAGUGCUAAGGGGGCCUGGAAGUUAGGACUGGGCAGAGCUCAACACAGCGUGGCAAAGUGGCUGUGGCUAGACUGCCUCUCUGGAUUCCUCGUCACUCAGCAGGGCAUCUCUGAGAGAAAUGCC [A6G U47A] is higher in self-cleavage: 0.89 for the first, 0.91 for the second.

Compared with UACGUAGGUGGUUUUCCCAUGAUAGUGCUAAGGGGGCCAGGAAGUUUGGACUGGGCAGAGCUCAACACAGCGUGGCAAAGUGGCUGUGGCUAGACUGCCUCUCUGGAUUCCUCGUCACUCAGCAGGGCAUCUCUGAGAGAAAUGCC [C19A U39A], UACGUAGGUGGUUUUCCCCUGAAAGUGCUAAGGGGGCCUGGAAGUUUGGACUGGGCAGAGCUCAACACAGCGUGGCAAAGUGGCUGUGGCUAGACUGCCUCUCUGGAUUCCCCGUCACUCAGCAGGGCAUCUCUGAGAGAAAUGCC [U23A U112C] is lower in self-cleavage: 2.04 for the first, 1.18 for the second.

Going from UACGUAGGUGGUUUUCCCCUGAUAGUGCUAAGGGGGCCUGGAAGUUUGGACUGGGCAGAGCUCAACACAGCGAGGCAAAGUGGCUGUGGCUAGUCUGCCUCUCUGGAUUCCUCGUCACUCAGCAGGGCAUCUCUGAGAGAAAUGCC [U73A A94U] to UACGUAGGUGGUUUUCCCCUGAUAGUGCUAAGGGGGCCUGGAAGUUUGGACGGGGCAGAGCUCAACACAACGUGGCAAAGUGGCUGUGGCUAGACUGCCUCUCUGGAUUCCUCGUCACUCAGCAGGGCAUCUCUGAGAGAAAUGCC [U52G G70A], the self-cleavage rises from 0.27 to 0.42.

Compared with UACGUAGGUGGUUUUCCCCUGAUAGUGCUAAGGGGGCCUGGAUGUUUGGACUGGGCAGAGCUCAACACAGCGAGGCAAAGUGGCUGUGGCUAGACUGCCUCUCUGGAUUCCUCGUCACUCAGCAGGGCAUCUCUGAGAGAAAUGCC [A43U U73A], UACGUAGGUGGUUUUCCCCUGAUAGUGCUAAGGGGGCCUGGAAGAUUGGACUGGGCAGAGCUCAACACAGCGUGGCAAAGUGGCUGUGGCUAGACUGCCUCUCUGGAUUCCUCGUCACUCAGCAGGGCAUCUCUGAGAGAUAUGCC [U45A A141U] is higher in self-cleavage: 0.93 for the first, 1.01 for the second.

First: UUCGUAGGUGGUUUUCCCCUGAUAGUGCUAAGGGGGCCUGGAAGUUUGGACUGGGCAGAGCUCAACACAGCGAGGCAAAGUGGCUGUGGCUAGACUGCCUCUCUGGAUUCCUCGUCACUCAGCAGGGCAUCUCUGAGAGAAAUGCC [A2U U73A]
Second: UACGUAGGUGGUUUUCCCCUGAUAGUGCUAAGGGGGCCUGGAAGUUUGGACUGGGCAGAGCUCAACACAGCGUGGCAAAGUGGCUGUGGCUAUACUGCCUCUCUGGACUCCUCGUCACUCAGCAGGGCAUCUCUGAGAGAAAUGCC [G93U U108C]
The self-cleavage of the first is higher: 0.45 for the first, 0.05 for the second.

Going from UACGUAGGUGGUUUUCCCCUGAUAGUGCUAAGGGGGCCUGGAAGUUUGGACUGGGCAGAGCUCAACACUGCGUGGCAAAGUGGCUGUGGCUAGACUGCCUCUCUGGAUUCCUCGUCACUCAGCAGGGCAUCUCUGAGAGAAAUGCU [A69U C146U] to UACGUAGGUGGUUUUCCCCCGAUAGUGCUAAGGGGGCCUGGAAGUUUGGACUGGGCAGAGCUCAACACAGCGUGGCAAAGUGGCUGUGGCUAGACUGCCUCUCUGGAUUCCUCGUCACUCAGCAGGGCAUCACUGAGAGAAAUGCC [U20C U132A], the self-cleavage rises from 0.08 to 1.63.

Compared with UACGUAGGUGGUUUUCCCCUGAUAGUGCUAUGGGGGCCCGGAAGUUUGGACUGGGCAGAGCUCAACACAGCGUGGCAAAGUGGCUGUGGCUAGACUGCCUCUCUGGAUUCCUCGUCACUCAGCAGGGCAUCUCUGAGAGAAAUGCC [A31U U39C], UACGUAGGAGGUUUUCCCCUGAUAGUGCUAAGGGGGCCUGGAAGUUUGGACUGGGCAGAGCUCAACACAGCGGGGCAAAGUGGCUGUGGCUAGACUGCCUCUCUGGAUUCCUCGUCACUCAGCAGGGCAUCUCUGAGAGAAAUGCC [U9A U73G] is higher in self-cleavage: 0.73 for the first, 1.29 for the second.

First: UACGUAGGCGGUUUUCCCCUGAUAGUGCUAAGGGGGCCUGGAAGUUUGGACUGGGCAGAGCUCAACACAGCGUGGCAAAGUGGCUGUGGCUAGACUGCCUCUCUGGAUUCCUCGUCACUCAGCAAGGCAUCUCUGAGAGAAAUGCC [U9C G125A]
Second: UACGUAGGUGGUUUUCCCCUGAUAGUGCUAAGGGGGCCUGGAAGUUUGGACUGGGCAGAGCUCAACACAGCGUAGCAAAGUGGCUGUGGCUAGACUGCCUCUCUGGAUUCCUAGUCACUCAGCAGGGCAUCUCUGAGAGAAAUGCC [G74A C113A]
The self-cleavage of the first is higher: 1.8 for the first, 0.85 for the second.

First: UACGUAGGUGGGUUUCCCCUGAUAGUGCUAAAGGGGCCUGGAAGUUUGGACUGGGCAGAGCUCAACACAGCGUGGCAAAGUGGCUGUGGCUAGACUGCCUCUCUGGAUUCCUCGUCACUCAGCAGGGCAUCUCUGAGAGAAAUGCC [U12G G32A]
Second: UACGUUGGUGGUUUUCCCCUGAUAGUGCUAAGGGGGCCUGGAAGUUUGGACUGGGCAGAGCUCAACACAGCGUGGCAAAGUGGCUGUGGCUAGACUGCCUCUCUGGAUUCCUCGUCACCCAGCAGGGCAUCUCUGAGAGAAAUGCC [A6U U119C]
The self-cleavage of the first is higher: 0.78 for the first, 0.75 for the second.

Compared with UACAUAGGUGGUUUUCCCCCGAUAGUGCUAAGGGGGCCUGGAAGUUUGGACUGGGCAGAGCUCAACACAGCGUGGCAAAGUGGCUGUGGCUAGACUGCCUCUCUGGAUUCCUCGUCACUCAGCAGGGCAUCUCUGAGAGAAAUGCC [G4A U20C], UACGUAGGUGGUUUUCCCCUGAUAGUGCUAAGGGGGCCUGGAAGUUUGGACUGGGCAGAGCUCAACACAGCGUGGCAAAGUGGCUGUGGCCAGACUGCCUCUCUGGAUUCCUCGUCGCUCAGCAGGGCAUCUCUGAGAGAAAUGCC [U91C A117G] is lower in self-cleavage: 1.2 for the first, 0.78 for the second.

Compared with UACGUAGGUGGUUUUCCCCUGAUAGUGCUAAGGGGGCCUGGAAGUUUGGACUGGGCAGAGCUCAACACAGCGUGGCAAAGUGGCCGUGGCUAGUCUGCCUCUCUGGAUUCCUCGUCACUCAGCAGGGCAUCUCUGAGAGAAAUGCC [U85C A94U], UACGUAGGUGGUUUUCCCCUGAUAGUGCUAAGGGGGCCUGGGAGUUUGGACUGGGCAGAGCUCAACACAGCGUGGCAAAGUGGCGGUGGCUAGACUGCCUCUCUGGAUUCCUCGUCACUCAGCAGGGCAUCUCUGAGAGAAAUGCC [A42G U85G] is higher in self-cleavage: 0.14 for the first, 0.26 for the second.

Compared with UACGUAGGUGGUUCUCCCCUGAUAGUGCUAAGGGGGCCUGGAAGUUUGGACUGGGCAGAGCUCAACACAGCGUGGCAAAGUGGCUGGGGCUAGACUGCCUCUCUGGAUUCCUCGUCACUCAGCAGGGCAUCUCUGAGAGAAAUGCC [U14C U87G], UACGUAGGUGGUUUUUCCCUGAUAGUGCUAAGGGGGCCUGGAAGUUUGGACUGGGCAGAGCUCAACACAGCGUGGCAAUGUGGCUGUGGCUAGACUGCCUCUCUGGAUUCCUCGUCACUCAGCAGGGCAUCUCUGAGAGAAAUGCC [C16U A79U] is higher in self-cleavage: 0.31 for the first, 1.54 for the second.

Going from UACGUAGGUGGUUUUCCCCUGAUAGUGCUAAGGGGGCCUGGAAGUUUGGACUGGGCAGAGCUCAACACAGCGUGGCAAAGUGGCUGAGGCUAGACUGCCUCUCUGGAUUCCUCGCCACUCAGCAGGGCAUCUCUGAGAGAAAUGCC [U87A U115C] to UACGUAGGUGGUUUUCCCCUGAUAGUGCUAAGGGGGCCUGGAAGUUUGUACUGGGCAGAGCUCACCACAGCGUGGCAAAGUGGCUGUGGCUAGACUGCCUCUCUGGAUUCCUCGUCACUCAGCAGGGCAUCUCUGAGAGAAAUGCC [G49U A65C], the self-cleavage falls from 0.09 to 0.04.

Compared with UACGUAGGUGGUUUUCCCCUGAUAGUGCUAAGGGGGCCUGGAAGUUUGGACUGGGCAGAGCUCAACACAGCGUGGCAAAGUGGCUGCGGCUAGACUGCCUCUCUGGAUUCCUCGUCACUCGGCAGGGCAUCUCUGAGAGAAAUGCC [U87C A121G], UACGAAGGUGGUUUUCCCCUGAUAGUGCUAAGGGGGCCUGGAAGUAUGGACUGGGCAGAGCUCAACACAGCGUGGCAAAGUGGCUGUGGCUAGACUGCCUCUCUGGAUUCCUCGUCACUCAGCAGGGCAUCUCUGAGAGAAAUGCC [U5A U46A] is higher in self-cleavage: 0.15 for the first, 0.82 for the second.

Going from UACGUAGGUGGUUUUCCCCUGAUAGUGCUAAGGGGGCCUGGAAGUUUGGACUGGGCAGAGCUCUACACAGCGUGGCAAAGUGGCUGUGGCUAGACUGCCUCUCUGGAUUCCUCGUCACUCAGCAGAGCAUCUCUGAGAGAAAUGCC [A64U G126A] to UACGUAGGUGGUUUUCCCCUGAUAGUGCUAAGGGGGCCUGGAAGUUUGGACUGGGCAGAGCUCAACACAGAGUGGCAAAGUGGCUGUGGCUAGACUGCCUCUCUGGAUUCCUCGUCACUCAGCAGGGCAUCUCAGAGAGAAAUGCC [C71A U134A], the self-cleavage falls from 0.37 to 0.18.

Going from UACGUAGGUGGUUUUCCCCUGAUAGUGCUAAGGGGGCCUGGAAGUUUGGACUGGGCAGAGCUCAACACAGCGUGGCAAAGGGGCUGUGGCUAGACUGCCUCUCUGGAUUCCUCGUCACCCAGCAGGGCAUCUCUGAGAGAAAUGCC [U81G U119C] to UACGUAGGUGGUUUUCCCCUGAUAGUGCUAAGGGGGCCUGGAAGUUUGGACUGGGCAGAGCUCAACACGGCGUGGCAAAGUGGCUGUGGCUAGACUGCCUCUCUGGAUUCCCCGUCACUCAGCAGGGCAUCUCUGAGAGAAAUGCC [A69G U112C], the self-cleavage falls from 1.54 to 0.52.

Compared with UACGUAGGUGGUUUUCCCCUGAUAGUGCUGAGGGGGCCUGGAAGUUUGGACUGGGCAGAGCUCAACACAGCGUGGCAAAGUGGCUGUGGCUAGACUGCCUCUCUGGAUUCCUCGUCACUCAGCAGGGCAUCUCUGAGAGAAAAGCC [A30G U143A], UACGUAGGUGGUUUUCCCCUGAUAGUGCUAAGGGGGCCUGGCAGUUUGGACUGGGCAGAGCUCAACACAGCGUGGCAAAGUGGCUGUGGCUAGACUGCCUCUCUGGAUUCCUCGUCACCCAGCAGGGCAUCUCUGAGAGAAAUGCC [A42C U119C] is lower in self-cleavage: 0.93 for the first, 0 for the second.

First: UACGUAGGUGGUUUUCCCCUGAUAGUGCUAAGGGGGCCUGGAAGUUUGGGCUGGGCAGAGCUCAACACAGCGUGGCAAAGUGGCUGUGGCUAGACUGCCUCUCUGGAUUCCUCGUCACUCUGCAGGGCAUCUCUGAGAGAAAUGCC [A50G A121U]
Second: UACGUAGGUGGUUUUCCUCUGAUAGUGCUAAGGGGGCCUGGAAGUUUGGACUGGGCAGAGCUCAACACAGCGUGGCAAAGUGGCUGAGGCUAGACUGCCUCUCUGGAUUCCUCGUCACUCAGCAGGGCAUCUCUGAGAGAAAUGCC [C18U U87A]
The self-cleavage of the first is higher: 0.48 for the first, 0.08 for the second.

Work on UACGUAGGUGGUUUUCCCCUGAUAGUGCUAAGGGGGCCUGGAAGUUUGGCCUGGGCAGAGCUCAACACAGCGUGGCAAAGUGGCUGUGGCUAGACUGCCUCUUUGGAUUCCUCGUCACUCAGCAGGGCAUCUCUGAGAGAAAUGCC [A50C C103U] yielded a self-cleavage of 1.37.
